{"source": "paper PMC6323846", "about": "“Comprehensive investigation of the gene expression system regulated by an Aspergillus oryzae transcription factor XlnR using integrated mining of gSELEX-Seq and microarray data”", "data": [{"target": "T1, MBP-AoXlnR (MBP-XlnR1-183) (Aspergillus oryzae (strain  …, UniProt Q2UD93 1-183))", "T1 sequence": "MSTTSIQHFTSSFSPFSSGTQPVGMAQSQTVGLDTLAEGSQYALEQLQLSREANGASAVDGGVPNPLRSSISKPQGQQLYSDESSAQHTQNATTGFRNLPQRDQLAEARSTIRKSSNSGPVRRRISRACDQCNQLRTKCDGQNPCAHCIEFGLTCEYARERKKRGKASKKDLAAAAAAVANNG", "experiment": "BLI; BLI (BLItz, streptavidin sensors), Kinetics Buffer 10x (Pall-ForteBio; composition and pH not stated), room temperature, DNA immobilized, 1:1 global fit", "details": "protein: recombinant; label: 5' biotin on bio-polyA strand (complement of strand 1, S14 extended); blunt", "units": {"Kd": "nM"}, "values": [{"molecule": "abf-687 (abf-680 in Table S1) (dsDNA) DNA 1: GCAGAAGCTCTTGCAGATCTGTCGGCTGAAGGTTTGTTTTAGGCCAAATGCCTTTTTTTTTTTTTTTTTT DNA 2: AAAAAAAAAAAAAAAAAAGGCATTTGGCCTAAAACAAACCTTCAGCCGACAGATCTGCAAGAGCTTCTGC", "Kd": 133}, {"molecule": "egl-617 (dsDNA) DNA 1: GCAGCGGCGAAAGGTGCAGGATGGCTGACGCTCAGTTTAATGAGCAGTGGCCTTTTTTTTTTTTTTTTTT DNA 2: AAAAAAAAAAAAAAAAAAGGCCACTGCTCATTAAACTGAGCGTCAGCCATCCTGCACCTTTCGCCGCTGC", "Kd": 48.4}, {"molecule": "egl-242 (dsDNA) DNA 1: GGAGACTCCTCTCATCTTGCTGGGCTGAAGACTCGGTCAATACCATGATACCTTTTTTTTTTTTTTTTTT DNA 2: AAAAAAAAAAAAAAAAAAGGTATCATGGTATTGACCGAGTCTTCAGCCCAGCAAGATGAGAGGAGTCTCC", "Kd": 40.6}, {"molecule": "abf-830 (abf-837 in Table S1) (dsDNA) DNA 1: TTAAACACATGAGACACACTCGCGGCTGAATGGTTTCGGGTTTTAGCCGGCCTTTTTTTTTTTTTTTTTT DNA 2: AAAAAAAAAAAAAAAAAAGGCCGGCTAAAACCCGAAACCATTCAGCCGCGAGTGTGTCTCATGTGTTTAA", "Kd": 144}, {"molecule": "egl-363 (dsDNA) DNA 1: CAACCCGAGGGTCGATCGACTCCGGCATTAGCTGCCCAGCAGGTATACAGCCTTTTTTTTTTTTTTTTTT DNA 2: AAAAAAAAAAAAAAAAAAGGCTGTATACCTGCTGGGCAGCTAATGCCGGAGTCGATCGACCCTCGGGTTG", "Kd": 68.7}]}, {"target": "T2, MBP-AoXlnR (MBP-XlnR1-183) (Aspergillus oryzae (strain not given for the expression construct; RIB40 used for genomic DNA)) (UniProt Q2UD93)", "T2 sequence": "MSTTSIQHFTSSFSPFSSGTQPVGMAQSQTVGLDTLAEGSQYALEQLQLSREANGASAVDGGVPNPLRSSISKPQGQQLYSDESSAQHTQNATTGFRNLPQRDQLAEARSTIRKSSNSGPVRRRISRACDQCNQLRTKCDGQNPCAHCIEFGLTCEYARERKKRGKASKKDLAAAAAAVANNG", "experiment": "BLI", "details": "BLI (BLItz, streptavidin sensors), Kinetics Buffer 10x (Pall-ForteBio; composition and pH not stated), room temperature, DNA immobilized, 1:1 global fit", "units": {"Kd": "nM"}, "values": [{"molecule": "GGAATTCGGGGTATTAGGCTAAACGTGGCTATCATGGTGAAACAGGCTGAAGAACAGTTCCTGGCAGGTCAAATGGGAATCTAGAGC (double strand) [XRE-WT]", "Kd": 656}, {"molecule": "XRE-WT", "Kd": 656}, {"molecule": "CCAGCCAACCTTCAGCTCAGCAATGCATGCCTTTTTCCCTTTTACCCATTTACCCAGGAATAATGGCATCCTCAGGGTTTCAGCATCTGCT (double strand) [xynF1_upstream_1]", "Kd": 311}]}]}
